Measured values taken from patent publication US20230303648A1 (OSE IMMUNOTHERAPEUTICS, published 2023).
Each block holds one binder with its values, some of them ahead of it.

Legend:
[1] = molecular target: T1, CD127 recombinant protein (Histidine tagged, Sino ref 10975-H08H) (UniProt P16871 21-239); assay: sandwich ELISA, PD-1 immobilised, molecule preincubated with His-tagged CD127, anti-His-biotin + streptavidin-peroxidase, 450 nm
T1 construct: bought; used in the CD127 sandwich ELISA; also called CD127 receptor; IL-7Ralpha; not shown: histidine tag
T1 sequence (looked up): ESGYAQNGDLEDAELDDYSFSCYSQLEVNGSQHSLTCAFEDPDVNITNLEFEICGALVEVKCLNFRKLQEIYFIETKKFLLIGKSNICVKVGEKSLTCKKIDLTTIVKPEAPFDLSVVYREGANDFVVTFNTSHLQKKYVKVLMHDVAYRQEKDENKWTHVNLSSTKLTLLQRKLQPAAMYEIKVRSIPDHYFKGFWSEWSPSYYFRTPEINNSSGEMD
Experimental: Colorimetry was determined at 450 nm using TMB substrate. […] C.
Colorimetry was determined at 450 nm using TMB substrate.

[2] = molecular target: T2, recombinant human PD-1 (rPD1; Sino Biologicals, reference 10377-H08H) (human, UniProt Q15116 25-167); assay: ELISA: PD-1 immobilised, anti-human Fc peroxidase detection
T2 construct: bought; also called hPD1; PD-1 receptor
T2 sequence (Q15116 25-167 limits assumed): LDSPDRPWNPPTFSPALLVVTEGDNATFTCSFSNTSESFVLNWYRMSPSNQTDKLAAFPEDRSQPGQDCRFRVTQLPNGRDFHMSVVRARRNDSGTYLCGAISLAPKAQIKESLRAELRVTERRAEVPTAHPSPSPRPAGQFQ
Experimental: A. PD-1 binding ELISA assay. Human recombinant PD-1 (rPD1) protein was immobilized, and antibodies were added at different concentrations. Revelation was performed with an anti-human Fc antibody coupled to peroxidase. Colorimetry was determined at 450 nm using TMB substrate. The anti PD-1 with 1 (anti PD-1*1 ▲ grey) or 2 anti PD-1 arms (anti PD-1*2 ◆) were tested as control. […] All constructions tested comprise a […] linker between the Fc and IL-7 domain.

[3] = molecular target: T3, biotinylated recombinant human PD-1 (human, UniProt Q15116 25-167, limits assumed, biotinylated (site not stated)); assay: competition ELISA: PD-L1 immobilised (competitor), biotinylated PD-1 at 0.6 µg/mL premixed with the molecule
T3 construct: used in solution in the PD-1/PD-L1 antagonist ELISA; also called PD-1 receptor
T3 sequence (Q15116 25-167 limits assumed): as above

[4] = molecular target: T4, CD132 receptor (Sinobiological 10555-H08B) (UniProt P31785 23-254); assay: Biacore, steady-state model: CD127 immobilised, IgG4 alone injected, then CD132 at 31.25-500 nM; baseline of CD127 with CD132 in the absence of IL-7
T4 construct: bought; analyte in the Biacore CD132 assay; also called common gamma chain
T4 sequence (looked up): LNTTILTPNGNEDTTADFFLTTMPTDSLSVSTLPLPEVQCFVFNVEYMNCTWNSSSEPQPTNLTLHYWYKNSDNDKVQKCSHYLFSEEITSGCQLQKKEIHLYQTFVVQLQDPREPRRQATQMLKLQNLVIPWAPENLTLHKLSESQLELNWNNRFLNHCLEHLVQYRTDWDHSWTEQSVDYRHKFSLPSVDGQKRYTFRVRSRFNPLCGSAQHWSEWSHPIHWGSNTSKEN

EC50 (read off the curve) [1]: ~0.05 mg/L
B1: anti PD-1 W142H bifunctional molecule with an isotype IgG1m + YTE (grey circle; no label printed on the sheet, name taken from legend paragraph 41) (other)
heavy: QIQLVQSGSELKKPGASVKVSCKASGYTFTHYAMNWVRQAPGQGLEWMGWINTNTGEPTYAQGFTGRFVFSLDTSVSTAYLQISSLKAEDTAVYYCAREREPGMDNWGQGTLVTVSSASTKGPSVFPLAPSSKSTSGGTAALGCLVKDYFPEPVTVSWNSGALTSGVHTFPAVLQSSGLYSLSSVVTVPSSSLGTQTYICNVNHKPSNTKVDKKVEPKSCDKTHTCPPCPAPELLGGPSVFLFPPKPKDTLYITREPEVTCVVVDVSHEDPEVKFNWYVDGVEVHNAKTKPREEQYASTYRVVSVLTVLHQDWLNGKEYKCKVSNKALPAPIEKTISKAKGQPREPQVYTLPPSRDELTKNQVSLTCLVKGFYPSDIAVEWESNGQPENNYKTTPPVLDSDGSFFLYSKLTVDKSRWQQGNVFSCSVMHEALHNHYTQKSLSLSPGKGGGGSGGGGSGGGGSDCDIEGKDGKQYESVLMVSIDQLLDSMKEIGSNCLNNEFNFFKRHICDANKEGMFLFRAARKLRQFLKMNSTGDFDLHLLKVSEGTTILLNCTGQVKGRKPAALGEAQPTKSLEENKSLKEQKKLNDLCFLKRLLQEIKTCHNKILMGTKEH
light: DVVMTQSPLSLPVTLGQPASISCRSSQSLVHANTNTYLEWYQQRPGQSPRLLIYKVSNRFSGVPDRFSGSGSGTDFTLKISRVEAEDVGVYYCFQGTHVPNTFGQGTKLEIKRTVAAPSVFIFPPSDEQLKSGTASVVCLLNNFYPREAKVQWKVDNALQSGNSQESVTEQDSKDSTYSLSSTLTLSKADYEKHKVYACEVTHQGLSSPVTKSFNRGEC
notes: also called anti PD-1 IL-7 W142H IgG1m + YTE

EC50 [2]: 0.238 nM | EC50 [3]: 5.01 nM
B2: anti-PD-1*1 (control construction, one anti PD-1 arm, devoid of IL-7 variant) (antibody, human IgG1, kappa, N297A)
heavy: QIQLVQSGSELKKPGASVKVSCKASGYTFTHYAMNWVRQAPGQGLEWMGWINTNTGEPTYAQGFTGRFVFSLDTSVSTAYLQISSLKAEDTAVYYCAREREPGMDNWGQGTLVTVSSASTKGPSVFPLAPSSKSTSGGTAALGCLVKDYFPEPVTVSWNSGALTSGVHTFPAVLQSSGLYSLSSVVTVPSSSLGTQTYICNVNHKPSNTKVDKKVEPKSCDKTHTCPPCPAPELLGGPSVFLFPPKPKDTLMISRTPEVTCVVVDVSHEDPEVKFNWYVDGVEVHNAKTKPREEQYASTYRVVSVLTVLHQDWLNGKEYKCKVSNKALPAPIEKTISKAKGQPREPQVYTLPPCRDELTKNQVSLWCLVKGFYPSDIAVEWESNGQPENNYKTTPPVLDSDGSFFLYSKLTVDKSRWQQGNVFSCSVMHEALHNHYTQKSLSLSPGK
chain: DKTHTCPPCPAPELLGGPSVFLFPPKPKDTLMISRTPEVTCVVVDVSHEDPEVKFNWYVDGVEVHNAKTKPREEQYASTYRVVSVLTVLHQDWLNGKEYKCKVSNKALPAPIEKTISKAKGQPREPQVYTLPPCRDELTKNQVSLWCLVKGFYPSDIAVEWESNGQPENNYKTTPPVLDSDGSFFLYSKLTVDKSRWQQGNVFSCSVMHEALHNHYTQKSLSLSPGK
light: DVVMTQSPLSLPVTLGQPASISCRSSQSLVHANTNTYLEWYQQRPGQSPRLLIYKVSNRFSGVPDRFSGSGSGTDFTLKISRVEAEDVGVYYCFQGTHVPNTFGQGTKLEIKRTVAAPSVFIFPPSDEQLKSGTASVVCLLNNFYPREAKVQWKVDNALQSGNSQESVTEQDSKDSTYSLSSTLTLSKADYEKHKVYACEVTHQGLSSPVTKSFNRGEC
notes: one-armed antibody, IgG1 N298A

EC50 [2]: 0.021 nM
B3: anti-PD1*2 (control antibody without any IL7) (antibody, IgG4, V domains shown)
VH: QIQLVQSGSELKKPGASVKVSCKASGYTFTHYAMNWVRQAPGQGLEWMGWINTNTGEPTYAQGFTGRFVFSLDTSVSTAYLQISSLKAEDTAVYYCAREREPGMDNWGQGTLVTVSS
VL: DVVMTQSPLSLPVTLGQPASISCRSSQSLVHANTNTYLEWYQQRPGQSPRLLIYKVSNRFSGVPDRFSGSGSGTDFTLKISRVEAEDVGVYYCFQGTHVPNTFGQGTKLEIKR
notes: two anti PD-1 arms

Kd [4]: 2500 nM
B4: CD127 (Sinobiological, 10975-H03H-50) (receptor, UniProt P16871 21-239, looked up)
chain: ESGYAQNGDLEDAELDDYSFSCYSQLEVNGSQHSLTCAFEDPDVNITNLEFEICGALVEVKCLNFRKLQEIYFIETKKFLLIGKSNICVKVGEKSLTCKKIDLTTIVKPEAPFDLSVVYREGANDFVVTFNTSHLQKKYVKVLMHDVAYRQEKDENKWTHVNLSSTKLTLLQRKLQPAAMYEIKVRSIPDHYFKGFWSEWSPSYYFRTPEINNSSGEMD
notes: bought; immobilised on the CM5 chip in the Biacore assays; also called CD127 receptor
